Measured values: US20130108682A1, “WOUND CARE PRODUCT COMPRISING A CATHELICIDIN POLYPEPTIDE” (LIPOPEPTIDE AB, priority 2007, published 2013)

Experiment: Release of LL-37 from coated polyurethane (PU) foam, quantified by ELISA
Format: physicochemical
Conditions: for % LL-37 released in solution: PU foam, data not shown
Method: LL-37 dissolved in PBS or ethanol was absorbed onto PU foam at a concentration of 25 μg LL-37/cm^2. A 1×1 cm piece of each preparation was cut, placed into a glass vial containing 3 ml PBS, and incubated under agitation for 24 h. At various time points (10, 20, 45, 120 min, and 24 h), 100 μl samples were collected and the amount of LL-37 released in solution was evaluated by ELISA. Results are expressed as the % LL-37 released in solution.
LL-37 was dissolved in ethanol or in PBS and 1 ml suspension was dropped onto 2×2 cm pieces of polyurethane (PU) foam (Brightwake, Kirkby-in-Ashfield, United Kingdom). The samples were allowed to dry at room temperature (RT) until no further weight loss could be recorded. Unless otherwise noted, a LL-37 solution at 100 μg/ml was used, resulting in a concentration of 25 μg LL-37/cm^2.
LL-37 was also mixed with various excipients before being applied onto the 2×2 cm PU foams. LL-37 dissolved in PBS was added to dry galactolipid and the resulting dispersion was vigorously shaken for 1 h. The galactolipid concentration was 0.2% (w/w). LL-37 dissolved in water was added to a preformed gel consisting of 25% poloxamer (Lutrol F127) in water. The resulting mixtures of about 1 g were heated at about 60° C. for about 10 min to evaporate the alcohol. The formulations were then applied with a spatula on 2×2 cm pieces of PU. In case the formulation contained water, PU foams were dried at RT for at least 24 h.
To release LL-37 from coated PU foam, 1×1 cm samples were cut and weighed in order to calculate the amount of LL-37 present in each sample. Each PU foam sample was placed into a 15 ml glass vial containing 3 ml PBS and incubated at RT for the indicated time period with constant shaking of 6 rpm. At various time intervals (10, 20, 45, 120 min, and 24 h), 100 μl release sample was removed for analysis and replaced with 100 μl fresh PBS. Release samples were stored at 4° C. until analysis, usually for 24 h.
The release was calculated as the total amount of LL-37 in the release liquid divided by the amount of loaded LL-37 in the sample.
LL-37 was detected and quantified using an enzyme-linked immunosorbent assay (ELISA) based on the protocol developed by Lindgreen and colleagues (Lindgreen 2004). Medium binding capacity 96-well plates (Greiner Bio-one, Frickenhausen Germany) were coated with […] rabbit IgG anti-LL-37 antibodies (Agrisera, Vännäs, Sweden) in 200 μl coating buffer (0.1M bicarbonate buffer, pH 9.0) for 18 to 24 h at 2-8° C. […] Reaction was stopped by addition of 50 μl 1 M sulfuric acid and absorbance immediately read at 450 nm (OD450 nm) using a VERSAmax microplate reader equipped with SoftMax Pro software for analysis (Molecular Devices).

LLGDFFRKSKEKIGKEFKRIVQRIKDFLRNLVPRTES [LL-37]
% LL-37 released in solution (maximum) (PU foam with 25 μg LL-37, peptide formulated in PBS or in ethanol, 3 ml PBS, shaking, after 24 h incubation): 30%
% LL-37 released in solution (LL-37 formulated in galactolipid (ethanol or PBS solutions)): No detectable
% LL-37 released in solution (LL-37 formulated in poloxamer (Lutrol)): 1%
LL-37 concentration in release sample as determined by ELISA (release sample from PU foam where LL-37 in PBS has been absorbed, used in second chemotaxis experiment): 4,500 ng/ml
